Laboratory results: the supplement of paper PMC9732359
± gives the uncertainty stated by the source.

Assay: protein stability index of a GFP-peptide fusion (yeast GPS) (PSI 1-4); higher = more stable; sorted into four equal gates, so the index is relative within each strain
In short: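 Tiled 17-residue yeast protein peptides were fused downstream of GFP in a plasmid that also expresses Cherry, and the pooled library was carried in yeast. Mid-log cultures in leucine-free medium were sorted into four equal gates by GFP/Cherry fluorescence ratio, and plasmids from each gate were PCR-amplified and Illumina-sequenced, with reads assigned to strains by barcodes. The protein stability index for each peptide was each gate's read frequency times its gate number, summed.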

Row | Sequence | protein stability index (doa10∆) | protein stability index (pdr5∆) | protein stability index (san1∆) | protein stability index (ubr1∆)
1 | KKLPRKTHRGLRKVACI [RPL3] | 1.61 ± 0.062 | 3.5 ± 0.098 | 2.65 ± 0.064 | 3.23 ± 0.058
2 | NKQPRNESFNRRISSMP [YAR002W/NUP60] | 2.62 ± 0.068 | 3.04 ± 0.07 | 2.53 ± 0.078 | 2.99 ± 0.038
3 | AEKSYLYDSLASTPSIR [RRP42] | 2.57 ± 0.15 | 2.33 ± 0.1 | 2.46 ± 0.19 | 3.2 ± 0.11
4 | RADIVRNIILEARFDVL [ISW2] | 2.66 ± 0.088 | 2.25 ± 0.071 | 2.09 ± 0.11 | 2.51 ± 0.073
5 | REHSLQLFRTNKVQIMI [PRP28] | 1.61 ± 0.063 | 1.75 ± 0.065 | 1.61 ± 0.084 | 2.07 ± 0.037
6 | PGTVLILLAGRFRGKRV [RPL6A] | 1.61 ± 0.066 | 1.83 ± 0.069 | 1.66 ± 0.11 | 2.19 ± 0.073
7 | ASPHASVRTAVFSALKN [ECM29] | 1.56 ± 0.051 | 1.58 ± 0.05 | 1.25 ± 0.083 | 1.42 ± 0.056
8 | VLEFCKDYEAKTKAMSL [POP1] | 3.06 ± 0.045 | 2.67 ± 0.043 | 2.73 ± 0.037 | 3.06 ± 0.031
9 | TMGMRALLKLSVKLKQK [DIS3] | 1.28 ± 0.059 | 1.59 ± 0.063 | 1.21 ± 0.072 | 1.33 ± 0.07
10 | TSEMKVLSIPPANHLQS [YGL100W/SEH1] | 2.64 ± 0.067 | 2.15 ± 0.076 | 2.39 ± 0.081 | 2.56 ± 0.05
11 | ECYKQLFLTAPDSCNMQ [YCS4] | 2.42 ± 0.11 | 2.21 ± 0.16 | 2.85 ± 0.12 | 2.5 ± 0.083
12 | PLIMATCGSKGSTLNVS [RPO31] | 2.84 ± 0.12 | 2.05 ± 0.074 | 2.54 ± 0.1 | 2.23 ± 0.069
13 | GYRSRTRYMFQRDFRKH [RPL21A] | 3.16 ± 0.07 | 3.19 ± 0.08 | 3.16 ± 0.049 | 3.3 ± 0.049
14 | KAKRAKTGSASTVKGSV [TAF14] | 2.9 ± 0.11 | 2.66 ± 0.24 | 2.77 ± 0.16 | 3.16 ± 0.083
15 | KNLISRINTLPQVQLPV [ECM29] | 2.85 ± 0.13 | 2.86 ± 0.1 | 2.9 ± 0.16 | 2.83 ± 0.17
16 | FIVSGTASDQLFGMCES [PUP3] | 2.41 ± 0.046 | 2.46 ± 0.045 | 2.63 ± 0.056 | 2.53 ± 0.039
17 | YHRLSNKDMIKNLVKVL [CSN12] | 3.21 ± 0.26 | 2.97 ± 0.19 | 1.41 ± 0.25 | 
18 | KKFLRVRIFTKIESEDD [SRB4] | 1.46 ± 0.092 | 1.26 ± 0.089 | 1.16 ± 0.13 | 1.11 ± 0.083
19 | TSPSYSPTSPSYSPTSP [RPO21] | 2.64 ± 0.045 | 3 ± 0.038 | 2.77 ± 0.033 | 2.81 ± 0.03
20 | QLNGNETFSTSAHQSPI [SNF2] | 3.31 ± 0.11 | 2.99 ± 0.075 | 3.16 ± 0.072 | 3.22 ± 0.054
21 | NNETEQLKAEEKKILNQ [SMC1] | 3.11 ± 0.12 | 3.15 ± 0.17 | 3.13 ± 0.17 | 3.01 ± 0.11
22 | LEEHKNHLDELQKKFVT [SMC1] | 2.88 ± 0.08 | 2.83 ± 0.11 | 2.88 ± 0.059 | 2.91 ± 0.052
23 | YNNNTIRKLLEKINRMI [CSI1] | 3 ± 0.18 | 2.79 ± 0.17 |  | 3.1 ± 0.19
24 | GDIESLFEQLQTVSNKE [SRP54] | 3.08 ± 0.098 | 2.87 ± 0.079 | 3.18 ± 0.045 | 3.12 ± 0.046
25 | KDRIIDERTKEFEKKLQ [YIL149C/MLP2] | 3.23 ± 0.21 | 3.06 ± 0.19 | 2.94 ± 0.086 | 3.42 ± 0.1

Row | Sequence | protein stability index (doa10∆) | protein stability index (pdr5∆) | protein stability index (san1∆) | protein stability index (ubr1∆)
26 | DTAPKPNIVEIDLDNDE [DLS1] | 3.27 ± 0.082 | 3.4 ± 0.058 | 3.03 ± 0.079 | 3.27 ± 0.091
27 | QCLRFLKETVIPSLANN [POP6] | 1.49 ± 0.065 | 1.63 ± 0.11 | 1.92 ± 0.16 | 2.09 ± 0.051
28 | TPIIFIGTGEHIHDLEK [SRP54] | 1.94 ± 0.071 | 2.42 ± 0.063 | 2.76 ± 0.068 | 2.45 ± 0.056
29 | TPNTNSNSTPNANQQFL [SWI1] | 3.11 ± 0.054 | 3.15 ± 0.047 | 2.93 ± 0.053 | 3.1 ± 0.035
30 | VKSFKPHLLKQGLAMVE [RRP42] | 2.01 ± 0.13 | 2.35 ± 0.1 |  | 2.29 ± 0.2
31 | TYQLCVRLRSNVIKTGI [RPN3] | 3.25 ± 0.14 | 3.35 ± 0.14 | 3.27 ± 0.084 | 
32 | YLIDHIKVDGAVGNLGN [RPL22B] | 2.41 ± 0.23 | 2.49 ± 0.14 | 2.53 ± 0.066 | 2.61 ± 0.24
33 | NRDPVKHAEFDLSLLGY [SIR2] |  | 2.75 ± 0.21 |  | 
34 | NSITKDNIDYAPMRLAT [YJL039C/NUP192] | 2.58 ± 0.048 | 2.74 ± 0.038 | 2.71 ± 0.05 | 2.57 ± 0.035
35 | FNNGDDDDYGDEEDPNE [RPC31] | 3.25 ± 0.15 | 2.36 ± 0.17 | 2.98 ± 0.088 | 
36 | PGDGSSYINVTFRAVVF [RPC25] | 1.5 ± 0.083 | 2.05 ± 0.058 | 2.4 ± 0.077 | 2.08 ± 0.054
37 | HGGKMKPEIDENGTLLV [RPR2] | 3.16 ± 0.078 | 3.14 ± 0.11 | 3.05 ± 0.075 | 2.97 ± 0.047
38 | DPIWQHQSLGPDGLGEV [RET1] | 2.96 ± 0.11 | 3.13 ± 0.11 | 3.04 ± 0.11 | 3.35 ± 0.15
39 | DLSTLVHSSSPSTSSNM [GAL11] | 2.77 ± 0.066 | 2.91 ± 0.069 | 2.71 ± 0.082 | 2.78 ± 0.039
40 | RQINKLIDSLPGVDVSA [SRB7] | 2.43 ± 0.056 | 2.06 ± 0.05 | 1.6 ± 0.077 | 1.9 ± 0.038
41 | RIFKITEKLSPLASEES [YGL100W/SEH1] | 2.82 ± 0.056 | 2.5 ± 0.055 | 2.41 ± 0.066 | 2.57 ± 0.032
42 | SSLSAIIVFGYPESISN [YDL088C/ASM4] | 1.75 ± 0.067 | 1.88 ± 0.046 | 2.16 ± 0.086 | 2.01 ± 0.062
43 | SWSNGKITSPIRSVALN [RRP42] | 2.62 ± 0.11 | 2.62 ± 0.089 | 2.66 ± 0.091 | 2.81 ± 0.073
44 | KYPARRIHTNDNDIMNL [SSN3] | 2.83 ± 0.074 | 3.06 ± 0.072 | 2.98 ± 0.077 | 2.9 ± 0.059
45 | IPSIPNPIANHTVTNSP [SNF5] | 2.46 ± 0.039 | 2.68 ± 0.036 | 2.45 ± 0.041 | 2.6 ± 0.027
46 | LLDTNSLEENAMSTVTL [SKI6] | 3.11 ± 0.086 | 3.04 ± 0.066 | 3.04 ± 0.083 | 2.89 ± 0.061
47 | SPFGGSSHAKGIVLEKL [RPS23A] | 3.19 ± 0.096 | 3.14 ± 0.074 | 3.12 ± 0.067 | 3.17 ± 0.063
48 | SSTKDYLTPPHECRLRD [RET1] | 3.34 ± 0.12 | 3.22 ± 0.14 | 3.2 ± 0.18 | 3.25 ± 0.16
49 | DTICQSIQEQIQEFQGN [SNF5] | 3.27 ± 0.073 | 3.44 ± 0.1 | 3.36 ± 0.076 | 3.6 ± 0.075
50 | SQSKMMSSQISSLIPHC [MTR3] | 2.35 ± 0.057 | 2.09 ± 0.039 | 2.21 ± 0.048 | 2.31 ± 0.042
